This is an account of results in patent US20140087995A1 (published 2014).

Numbered stars: 1 amine (or outer) side, 2 acyl side, 3 side chain; on linkers, the order of the positions; unused ones are H or OH. Bridge positions count the residues as written; N and C are the ends. Side chains are listed from the residue outwards. Ends that are not written are not given here. * marks the point of attachment. C20 diacid = O=C(O)CCCCCCCCCCCCCCCCCCC(=O)*; γGlu = O=C(O)[C@H](CCC(=O)[*:2])N[*:1]; AEEA = NCCOCCOCC(=O)O

For assay [1], the target named is T1, rat calcitonin receptor (rat, UniProt P32214 25-516).
T1 construct: whole, on cells; Used as membranes prepared from BHK tk'ts 13 cells transiently transfected with the rat calcitonin receptor (Assay VIII); also called rCTR; rat calcitonin (a) receptor
T1 sequence (looked up): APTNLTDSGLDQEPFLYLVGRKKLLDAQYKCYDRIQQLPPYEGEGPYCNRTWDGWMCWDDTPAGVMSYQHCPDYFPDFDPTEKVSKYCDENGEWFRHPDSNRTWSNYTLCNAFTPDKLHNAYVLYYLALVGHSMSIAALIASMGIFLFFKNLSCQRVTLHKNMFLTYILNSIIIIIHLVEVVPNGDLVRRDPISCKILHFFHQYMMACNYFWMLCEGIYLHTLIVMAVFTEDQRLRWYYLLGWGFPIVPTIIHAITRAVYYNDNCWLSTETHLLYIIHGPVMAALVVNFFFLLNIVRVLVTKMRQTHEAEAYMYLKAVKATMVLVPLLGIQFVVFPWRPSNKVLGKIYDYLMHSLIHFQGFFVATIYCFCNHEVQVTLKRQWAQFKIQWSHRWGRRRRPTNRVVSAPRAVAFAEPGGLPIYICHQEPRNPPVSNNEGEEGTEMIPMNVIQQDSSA
Put plainly: IC50 on rat CTR divided by IC50 on rat amylin receptor (Assays VIII/VI).

Assay [2] concerns the target T2, human calcitonin receptor (human, UniProt P30988 25-474).
T2 construct: whole, on cells; Used as membranes prepared from a BHK tk'ts 13 cell line stably transfected with the human calcitonin receptor (Assay VII); also called hCTR; hCT
T2 sequence (looked up): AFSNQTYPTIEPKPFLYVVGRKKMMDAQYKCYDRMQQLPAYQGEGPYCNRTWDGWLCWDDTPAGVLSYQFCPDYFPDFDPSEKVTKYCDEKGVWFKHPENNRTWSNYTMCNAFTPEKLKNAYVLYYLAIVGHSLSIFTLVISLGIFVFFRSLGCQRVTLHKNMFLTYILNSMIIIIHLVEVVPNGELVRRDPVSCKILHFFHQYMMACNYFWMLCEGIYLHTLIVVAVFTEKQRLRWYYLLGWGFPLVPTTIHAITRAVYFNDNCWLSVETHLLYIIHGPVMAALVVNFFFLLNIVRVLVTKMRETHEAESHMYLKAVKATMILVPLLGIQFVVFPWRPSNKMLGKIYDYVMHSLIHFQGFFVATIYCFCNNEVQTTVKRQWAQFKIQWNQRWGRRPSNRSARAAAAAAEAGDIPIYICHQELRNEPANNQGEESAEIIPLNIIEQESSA
The assay is described as follows: IC50 on human CTR divided by IC50 on human amylin receptor (Assays VII/V). An outline of the steps: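 Scintillation proximity competition binding on cell membranes at 35 ng/μL with SPA beads, in 50 mM Hepes pH 7.4, 1 mM CaCl2, 5 mM MgCl₂, 0.1% OA, 0.02% Tween20. Incubated 120 min at 25° C with shaking. IC₅₀ from one-site competition fit.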

Assay [3] concerns the target T1, rat calcitonin receptor. Put plainly: SPA competition with 125I-calcitonin, membranes of BHK cells with rat CTR (Assay VIII).
In assay [4] the target is T3, rat amylin receptor (rat calcitonin receptor + rat RAMP 3) (rat, UniProt P32214 25-516; Q9JJ73 23-147).
T3 construct: whole, on cells; Used as membranes prepared from BHK tk'ts 13 cells transiently transfected with rat calcitonin receptor and rat RAMP 3 (Assay VI); also called rAmylin-R; rat amylin 3(a) receptor
T3 sequence (looked up) 1: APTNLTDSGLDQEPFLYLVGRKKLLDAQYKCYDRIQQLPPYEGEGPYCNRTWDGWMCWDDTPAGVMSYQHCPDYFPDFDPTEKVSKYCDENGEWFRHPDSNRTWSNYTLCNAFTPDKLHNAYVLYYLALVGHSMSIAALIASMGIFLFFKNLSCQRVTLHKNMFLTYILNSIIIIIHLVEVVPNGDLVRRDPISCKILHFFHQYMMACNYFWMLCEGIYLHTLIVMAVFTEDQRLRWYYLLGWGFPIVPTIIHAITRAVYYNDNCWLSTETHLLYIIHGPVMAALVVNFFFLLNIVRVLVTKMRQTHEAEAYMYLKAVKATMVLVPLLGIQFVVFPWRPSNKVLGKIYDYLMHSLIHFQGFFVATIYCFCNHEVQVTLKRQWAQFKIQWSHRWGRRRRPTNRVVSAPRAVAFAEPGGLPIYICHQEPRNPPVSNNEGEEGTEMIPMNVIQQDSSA
T3 sequence (looked up) 2: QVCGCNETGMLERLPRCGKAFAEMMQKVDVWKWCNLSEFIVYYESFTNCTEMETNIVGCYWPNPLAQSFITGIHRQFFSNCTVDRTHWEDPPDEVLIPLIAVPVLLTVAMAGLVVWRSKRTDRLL
The assay is described as follows: SPA competition with 125I-rat amylin, membranes of BHK cells with rat CTR + rat RAMP3 (Assay VI).

B1: N^-1-[(4S)-4-carboxy-4-(19-carboxynonadecanoylamino)butanoyl]-Gly[Arg1,Arg17,Pro21,Pro27,His35]-h-amylin (peptide)
peptide: {C20 diacid-γGlu}-GRCNTATCATQRLANFLRHSSPNFGAIPSSTNVGSHTY-NH2
modifications: disulfide 3-8
SMILES: CC[C@H](C)[C@H](NC(=O)[C@H](C)NC(=O)CNC(=O)[C@H](Cc1ccccc1)NC(=O)[C@H](CC(N)=O)NC(=O)[C@@H]1CCCN1C(=O)[C@H](CO)NC(=O)[C@H](CO)NC(=O)[C@H](Cc1c[nH]cn1)NC(=O)[C@H](CCCNC(=N)N)NC(=O)[C@H](CC(C)C)NC(=O)[C@H](Cc1ccccc1)NC(=O)[C@H](CC(N)=O)NC(=O)[C@H](C)NC(=O)[C@H](CC(C)C)NC(=O)[C@H](CCCNC(=N)N)NC(=O)[C@H](CCC(N)=O)NC(=O)[C@@H](NC(=O)[C@H](C)NC(=O)[C@@H]1CSSC[C@H](NC(=O)[C@H](CCCNC(=N)N)NC(=O)CNC(=O)CC[C@H](NC(=O)CCCCCCCCCCCCCCCCCCC(=O)O)C(=O)O)C(=O)N[C@@H](CC(N)=O)C(=O)N[C@@H]([C@@H](C)O)C(=O)N[C@@H](C)C(=O)N[C@@H]([C@@H](C)O)C(=O)N1)[C@@H](C)O)C(=O)N1CCC[C@H]1C(=O)N[C@@H](CO)C(=O)N[C@@H](CO)C(=O)N[C@H](C(=O)N[C@@H](CC(N)=O)C(=O)N[C@H](C(=O)NCC(=O)N[C@@H](CO)C(=O)N[C@@H](Cc1c[nH]cn1)C(=O)N[C@H](C(=O)N[C@@H](Cc1ccc(O)cc1)C(N)=O)[C@@H](C)O)C(C)C)[C@@H](C)O
notes: Analogue of human amylin; also called compound 47
Take B1: in assay [1], the “Ratio rCT/rAmylin binding” value came out at 84.3. Also, in assay [2], the “Ratio hCT/hAmylin binding” value is 44.9. In addition, the values for the concentration for half-maximal inhibition (IC50) in assay [3] and in assay [4] were 17.1 nM and 0.203 nM, respectively.

B2: N^-1-[(4S)-4-carboxy-4-(19-carboxynonadecanoylamino)butanoyl]-Gly[Arg1,Arg17,Pro21,Pro27]-h-amylin (peptide)
peptide: {C20 diacid-γGlu}-GRCNTATCATQRLANFLRHSSPNFGAIPSSTNVGSNTY-NH2
modifications: disulfide 3-8
SMILES: CC[C@H](C)[C@H](NC(=O)[C@H](C)NC(=O)CNC(=O)[C@H](Cc1ccccc1)NC(=O)[C@H](CC(N)=O)NC(=O)[C@@H]1CCCN1C(=O)[C@H](CO)NC(=O)[C@H](CO)NC(=O)[C@H](Cc1c[nH]cn1)NC(=O)[C@H](CCCNC(=N)N)NC(=O)[C@H](CC(C)C)NC(=O)[C@H](Cc1ccccc1)NC(=O)[C@H](CC(N)=O)NC(=O)[C@H](C)NC(=O)[C@H](CC(C)C)NC(=O)[C@H](CCCNC(=N)N)NC(=O)[C@H](CCC(N)=O)NC(=O)[C@@H](NC(=O)[C@H](C)NC(=O)[C@@H]1CSSC[C@H](NC(=O)[C@H](CCCNC(=N)N)NC(=O)CNC(=O)CC[C@H](NC(=O)CCCCCCCCCCCCCCCCCCC(=O)O)C(=O)O)C(=O)N[C@@H](CC(N)=O)C(=O)N[C@@H]([C@@H](C)O)C(=O)N[C@@H](C)C(=O)N[C@@H]([C@@H](C)O)C(=O)N1)[C@@H](C)O)C(=O)N1CCC[C@H]1C(=O)N[C@@H](CO)C(=O)N[C@@H](CO)C(=O)N[C@H](C(=O)N[C@@H](CC(N)=O)C(=O)N[C@H](C(=O)NCC(=O)N[C@@H](CO)C(=O)N[C@@H](CC(N)=O)C(=O)N[C@H](C(=O)N[C@@H](Cc1ccc(O)cc1)C(N)=O)[C@@H](C)O)C(C)C)[C@@H](C)O
notes: Analogue of human amylin; also called compound 46
On to B2, for which the “Ratio rCT/rAmylin binding” value in assay [1] amounted to 142. In assay [2], the “Ratio hCT/hAmylin binding” value came out at 48.9. The half-maximal inhibitory concentration (IC50) in assay [3] worked out at 46.8 nM; in assay [4], 0.33 nM.

B3: N^ε-[2-[2-[2-[[(4S)-4-carboxy-4-(19-carboxynonadecanoylamino)butanoyl]amino]ethoxy]ethoxy]acetyl]Lys[Arg1,Arg17,Pro21,Pro27,His35]-h-amylin (peptide)
peptide: K([AEEA-γGlu-C20 diacid])RCNTATCATQRLANFLRHSSPNFGAIPSSTNVGSHTY-NH2
modifications: disulfide 3-8; N-terminus assumed
SMILES: CC[C@H](C)[C@H](NC(=O)[C@H](C)NC(=O)CNC(=O)[C@H](Cc1ccccc1)NC(=O)[C@H](CC(N)=O)NC(=O)[C@@H]1CCCN1C(=O)[C@H](CO)NC(=O)[C@H](CO)NC(=O)[C@H](Cc1c[nH]cn1)NC(=O)[C@H](CCCNC(=N)N)NC(=O)[C@H](CC(C)C)NC(=O)[C@H](Cc1ccccc1)NC(=O)[C@H](CC(N)=O)NC(=O)[C@H](C)NC(=O)[C@H](CC(C)C)NC(=O)[C@H](CCCNC(=N)N)NC(=O)[C@H](CCC(N)=O)NC(=O)[C@@H](NC(=O)[C@H](C)NC(=O)[C@@H]1CSSC[C@H](NC(=O)[C@H](CCCNC(=N)N)NC(=O)[C@@H](N)CCCCNC(=O)COCCOCCNC(=O)CC[C@H](NC(=O)CCCCCCCCCCCCCCCCCCC(=O)O)C(=O)O)C(=O)N[C@@H](CC(N)=O)C(=O)N[C@@H]([C@@H](C)O)C(=O)N[C@@H](C)C(=O)N[C@@H]([C@@H](C)O)C(=O)N1)[C@@H](C)O)C(=O)N1CCC[C@H]1C(=O)N[C@@H](CO)C(=O)N[C@@H](CO)C(=O)N[C@H](C(=O)N[C@@H](CC(N)=O)C(=O)N[C@H](C(=O)NCC(=O)N[C@@H](CO)C(=O)N[C@@H](Cc1c[nH]cn1)C(=O)N[C@H](C(=O)N[C@@H](Cc1ccc(O)cc1)C(N)=O)[C@@H](C)O)C(C)C)[C@@H](C)O
notes: Analogue of human amylin; also called compound 45
With B3, the “Ratio rCT/rAmylin binding” value in assay [1] was determined as 67.1. In addition, in assay [2], the “Ratio hCT/hAmylin binding” value stood at 26.8. Also, the IC50 is 41.8 nM in assay [3] and 0.623 nM in assay [4].

B4: N^ε1-[(4S)-4-carboxy-4-(19-carboxynonadecanoylamino)butanoyl]-[Arg17,Pro21,Pro27]-h-amylin (peptide)
peptide: K([γGlu-C20 diacid])CNTATCATQRLANFLRHSSPNFGAIPSSTNVGSNTY-NH2
modifications: disulfide 2-7; N-terminus assumed
SMILES: CC[C@H](C)[C@H](NC(=O)[C@H](C)NC(=O)CNC(=O)[C@H](Cc1ccccc1)NC(=O)[C@H](CC(N)=O)NC(=O)[C@@H]1CCCN1C(=O)[C@H](CO)NC(=O)[C@H](CO)NC(=O)[C@H](Cc1c[nH]cn1)NC(=O)[C@H](CCCNC(=N)N)NC(=O)[C@H](CC(C)C)NC(=O)[C@H](Cc1ccccc1)NC(=O)[C@H](CC(N)=O)NC(=O)[C@H](C)NC(=O)[C@H](CC(C)C)NC(=O)[C@H](CCCNC(=N)N)NC(=O)[C@H](CCC(N)=O)NC(=O)[C@@H](NC(=O)[C@H](C)NC(=O)[C@@H]1CSSC[C@H](NC(=O)[C@@H](N)CCCCNC(=O)CC[C@H](NC(=O)CCCCCCCCCCCCCCCCCCC(=O)O)C(=O)O)C(=O)N[C@@H](CC(N)=O)C(=O)N[C@@H]([C@@H](C)O)C(=O)N[C@@H](C)C(=O)N[C@@H]([C@@H](C)O)C(=O)N1)[C@@H](C)O)C(=O)N1CCC[C@H]1C(=O)N[C@@H](CO)C(=O)N[C@@H](CO)C(=O)N[C@H](C(=O)N[C@@H](CC(N)=O)C(=O)N[C@H](C(=O)NCC(=O)N[C@@H](CO)C(=O)N[C@@H](CC(N)=O)C(=O)N[C@H](C(=O)N[C@@H](Cc1ccc(O)cc1)C(N)=O)[C@@H](C)O)C(C)C)[C@@H](C)O
notes: Analogue of human amylin; also called compound 48
B4: the “Ratio rCT/rAmylin binding” value in assay [1] is 201. Also, in assay [2], the “Ratio hCT/hAmylin binding” value amounted to 69.7. Further, the IC50 in assay [3] is 112 nM; in assay [4] it was 0.558 nM.

By IC50 is commonly meant the concentration needed to halve the response being measured.
